Substrate in data set [1]: CCn1c(=NN=c2sc3cc(S(=O)(=O)O)ccc3n2CC)sc2cc(S(=O)(=O)O)ccc21
The experiment in a line: purified protein. The class given is biochemical, Streptomyces griseoflavus. As to conditions: pH 4.0, 30 °C, Britton-Robinson buffer, 1 mM CuSO4 growth medium.

Substrate in data set [2]: COc1cccc(OC)c1O
The data set is described as follows: purified protein. The class given is biochemical, Streptomyces griseoflavus. To be noted: pH 9.0, 30 °C, Britton-Robinson buffer, 1 mM CuSO4 growth medium.

B1: SgfSL wt (two-domain laccase, Streptomyces griseoflavus Small Laccase) (Streptomyces griseoflavus; I170A) (protein)
chain: AGAAPAGGEVRRVTMYAERLAGGQMGYGLEKGKASIPGPLIELNEGDTLHVEFENTMDVPVSLHVHGLDYEISSDGTKQNKSHVEPGGTRTYTWRTHEPGRRADGTWRAGSAGYWHYHDHVVGTEHGTGGARNGLYGPVIVRRKGDVLPDATHTIVFNDMTINNRPAHTGPNFEATVGDRVEIVMITHGEYYHTFHMHGHRWADNRTGMLTGPDDPSQVIDNKICGPADSFGFQIIAGEGVGAGAWMYHCHVQSHSDMGMVGLFLVKKPDGTIPGYDPQEHAH
notes: Ni-NTA purified from E. coli (pQE-30); I170A and I170F from pET32-Xa/LIC with thioredoxin tag cut by factor Xa (forward primer encodes AGAAPAGG...); homotrimer
Consider B1, for which, in “purified protein [1]”, the Michaelis constant (Km) (in general, the substrate concentration at which the rate is half of its maximum) was 630 ± 110 µM; the kcat – broadly, the maximal rate divided by the concentration of active sites – was found to be 0.7 ± 0.2 s⁻¹; the kcat/Km (usually the turnover number divided by the Michaelis constant) came to 1110 M⁻¹ s⁻¹.

B2: SgfSL wt (two-domain laccase, Streptomyces griseoflavus Small Laccase) (Streptomyces griseoflavus) (protein)
chain: AGAAPAGGEVRRVTMYAERLAGGQMGYGLEKGKASIPGPLIELNEGDTLHVEFENTMDVPVSLHVHGLDYEISSDGTKQNKSHVEPGGTRTYTWRTHEPGRRADGTWRAGSAGYWHYHDHVVGTEHGTGGIRNGLYGPVIVRRKGDVLPDATHTIVFNDMTINNRPAHTGPNFEATVGDRVEIVMITHGEYYHTFHMHGHRWADNRTGMLTGPDDPSQVIDNKICGPADSFGFQIIAGEGVGAGAWMYHCHVQSHSDMGMVGLFLVKKPDGTIPGYDPQEHAH
notes: as for B1
Turning to B2, in “purified protein [2]”, the Michaelis constant (Km) came to 5200 ± 110 µM, the kcat turned out to be 0.8 ± 0.09 s⁻¹ and the kcat/Km worked out at 150 M⁻¹ s⁻¹.

B3: SgfSL wt (two-domain laccase, Streptomyces griseoflavus Small Laccase) (Streptomyces griseoflavus; I170F) (protein)
chain: AGAAPAGGEVRRVTMYAERLAGGQMGYGLEKGKASIPGPLIELNEGDTLHVEFENTMDVPVSLHVHGLDYEISSDGTKQNKSHVEPGGTRTYTWRTHEPGRRADGTWRAGSAGYWHYHDHVVGTEHGTGGFRNGLYGPVIVRRKGDVLPDATHTIVFNDMTINNRPAHTGPNFEATVGDRVEIVMITHGEYYHTFHMHGHRWADNRTGMLTGPDDPSQVIDNKICGPADSFGFQIIAGEGVGAGAWMYHCHVQSHSDMGMVGLFLVKKPDGTIPGYDPQEHAH
notes: as for B1
For the protein B3, in “purified protein [1]”, the Km stood at 200 ± 40 µM, the kcat worked out at 0.08 ± 0.01 s⁻¹ and the kcat/Km was 400 M⁻¹ s⁻¹.

These data come from PMC6650940, “Investigations of Accessibility of T2/T3 Copper Center of Two-Domain Laccase from Streptomyces griseoflavus Ac-993” (International Journal of Molecular Sciences, 2019).
